# Test results: the nanobody polyreactivity screen of Harvey et al. (2022)
# Experiment: yeast display, Sf9 membrane polyspecificity reagent, FACS + sequencing; frameworks hold sequencing errors
# How it was run: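 Galactose-induced (36–48 hours) yeast carrying a synthetic nanobody display library were exposed to 10% biotinylated, detergent-solubilized Sf9 membrane reagent at 4 °C for 1 hour. FACS followed streptavidin microbead enrichment, using low and high (top ~1%) gates for expression (anti-HA) and reagent binding (streptavidin). Colony PCR, MiSeq 2 × 250 sequencing and CDR-length filtering followed. Labels for polyreactivity reflect the gate of origin.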
row,Sequence,polyreactivity (PSR sort gate)
1,QVQLVESGGGLVQAGGSLRLSCAASGSIVNYYAMGWYRQAPGKERELVAAITWSGGRTYSADSVKGRFTSSRDNAKNTVYLQMNSLKPEDTAVYYCATAPVRIRDILFSPRMDYWGLGTQVTVSS,low polyreactivity
2,QVQLVESGGGLVQAGGSLRLSCAASGSIVVWNDMGWYRQAPGTEREFVAAITSRDGSTYYADSVKGRFTISRDNAKNTVYLQMNSLKPEDTAVYYCAARLRVTVFYSRTRYYWGQGTQVTVSS,low polyreactivity
3,QVQLVESGGGLVQAGGSLRLSCAASGSIVYTNALGWSRQAPAKERELVAAISGSGGNTYYADSVKVRFTISRDNAKNTVYLQMNSLNPEDTAVYYCAADRNAYYYDSYYYWGLGTQVTVSS,high polyreactivity
4,QVQLVESGGGLVQAGGSLRLSCAASGSIVYYYGMGWYRPAPGKETELVAAISTGGSTYYADSVKGRFTISRDKAKKTVYLQMNSLKPEDTADFYCSADYYTQWQTRYDYWGQGTQVTVSS,low polyreactivity
5,QVQLVESGGGLVQAGGSLRLSCAASGSIYDPYAMGWYRQAPGKERELVAAINGGSGSTFYADSVKGRFTISRDNAKNTVYFQMNSLKPEDTAVYYCAAKIWRYSPSYYPEPRGDYWGQGTQVNVSS,low polyreactivity
6,QVQLVESGGGLVQAGGSLRLSCAASGSIYGSYVMGWYRQAPGKERELVAAINWSGGRTYYADSVKGRFTISRDNAKYTVFLQMNSLKPEDTAVYYCAARATNVYSKMDYWGQGTQVSVSS,high polyreactivity
7,QVQLVESGGGLVQAGGSLRLSCAASGSIYGYTMGWYRPAPGKERELVAAINRRADRTYYADSVKGRYTISRDNAKNTVYLQMNSLKPEDTAVYYCNKGGWYTLGYWGQGTQVTVSS,high polyreactivity
8,QVQLVESGGGLVQAGGSLRLSCAASGSIYHPYALGWYRQAPGKERELVAAISKSGGNTYYADSVKGRFTISRDNAKNTVYLQMNCLKPEDTAVYYCAALDYWGQGTQVTVSS,low polyreactivity
9,QVQLVESGGGLVQAGGSLRLSCAASGSIYITYAMGWYRQAPGKERELVAAIRDSGDRTYYADSVKGRFTISRDNAKNTVYLQMNSLKPEDTAVYYCNARWQEPLKYDYWGQGTQVTVSS,low polyreactivity
10,QVQLVESGGGLVQAGGSLRLSCAASGSIYNINAMGWYRQAPGKERELVATITSGGTTSYADSVKGRFTISRDNAKNTVYLQMNSLKPEDTAVYYCNAEIYPIVKAGRQHPRRYDYWGQGTQVTVSS,low polyreactivity
11,QVQLVESGGGLVQAGGSLRLSCAASGSIYPYYAKGWNRPAPRKERELFAAIDSGGSTNYADSLKGRFSITRDNAKNRVYLQLNSLIPEDTAVFYCADDVYWFAYVWSKYVFWGQGTHVTVSS,low polyreactivity
12,QVQLVESGGGLVQAGGSLRLSCAASGSIYQNAMGWYRQAPGKERELVAAITSSGGRTYADSVKGRFTISRDNAKNTVYLQMNSLKPEDTAVYYCAKDSTADELTGFDYWGQGTQVTVSS,low polyreactivity
13,QVQLVESGGGLVQAGGSLRLSCAASGSIYRWYAMGWYRQAPGKERELVASISSGTRTNYADSVKGRFTISRDNAKNTVYLQMNSLKPEDTAVYYCAAPYVKRWWGYGYWGQGTQVTVSS,high polyreactivity
14,QVQLVESGGGLVQAGGSLRLSCAASGSIYSNAMGWYRQAPGKERELVAAISRTGGSTYYADSVKGLFTISRDNAKITVYLQMNSLKPEDTAVYYCAVSAWTRSHALYYWGQGTQVTVSS,high polyreactivity
15,QVQLVESGGGLVQAGGSLRLSCAASGSIYSNAMGWYRQAPGKERELVAAISWRDGRTYYADSVKGRFTISRDNAKNTVYLQMNSLKPEDTAVYYCNADSRPLSTYYYWGQGTQVTVSS,low polyreactivity
16,QVQLVESGGGLVQAGGSLRLSCAASGSIYTHYAMGWYRQAPRKQRELVAAISRRGGSTYYADSVKGRFTISRDNAKNTVYLPMHSLKPEDTAVYYCAKSPDTAKEYDYWGQGTQVTVSS,high polyreactivity
17,QVQLVESGGGLVQAGGSLRLSCAASGSIYTQNAMGWYRQAPGKERELVADISRGSTYYADSVKGRFTISRDNAKNTVYLQMNSLKPEDTAVYYCAADDIAHPSFVSTVDVGMDYWGQGTQVTVSS,low polyreactivity
18,QVQLVESGGGLVQAGGSLRLSCAASGSIYVGNDMGWYSQAPGKESEFVATMSWAGGSTDYADSVKGRFTISRDNAKNTVYLQMNSQKPEDTAVYYCAKTPYSRYRYGGYTYRTFDYWGQGTQVTVSS,low polyreactivity
19,QVQLVESGGGLVQAGGSLRLSCAASGSIYVNAMGWYRQAPGKERELVAVISKSGGSTYYADSVKGRFTISRDNAKNTVYLQMNSLKPEDTAVYYCATRGVSPSRPGYYWGQGTQVTVSS,high polyreactivity
20,QVQLVESGGGLVQAGGSLRLSCAASGSIYVQNAMGWYRQAPGKERELVAAITFSGVDTYYADSVKGRFTISRDNAKNTVYFQMNSLKPEDTAVYYCNADRGYNLVRRSQAVVEMDYWGQGTQVTVSS,low polyreactivity
21,QVQLVESGGGLVQAGGSLRLSCAASGSIYWYAMGWYTQAPGKERELVAAITKSGSSTYYADSVKGRFTISRDNANNTVYLQMNSLIPEDTAVYYCAARRAVSGGVRMYYWGQGTQVTVSS,high polyreactivity
22,QVQLVESGGGLVQAGGSLRLSCAASGSIYYGKTMGWYRHAAGKEWELDAAISSGGSTKYADSVKGRFTISRDNAKNTVYLQMNSLKPEDTAVYYSAADLPRYWVTWMDYWGQGTQLTVSS,low polyreactivity

row,Sequence,polyreactivity (PSR sort gate)
1,QVQLVESGGGLVQAGGSLRLSCAASGSIYYTNAMGWYRQAPGKERELVAAISYGGTTTYADSVKGRFTISRDNAKNTVYLQMNSLKPEDTAVYYCNADWLYYGYWGYGHIWYDYWGQGTQVTVSS,low polyreactivity
2,QVQLVESGGGLVQAGGSLRLSCAASGSKFYTNVMGWYRQAPGKERELVARIDSGGSTNYADSVKGRFTISRDNAKNTVYLQMNSLKPEDTAVYYCAADWYIYDYWGQGTQVTVSS,low polyreactivity
3,QVQLVESGGGLVQAGGSLRLSCAASGSLFGGYAMGWYRQAPGKERELVAAISGSGGSTYYADSVKGRFTISRDNAKNTVYLQMNSLKPEDTAVYYCAAEYYGTYSEGGESYDYWGQGTQVTVSP,low polyreactivity
4,QVQLVESGGGLVQAGGSLRLSCAASGSLIRRYAMGWYRQAPGKEREFVAAISGRGGRTYYADSVKGRFTISRDNAKNTVYLQMNSLKPEDTAVYYCNAAFVTAEMDYWGQGTQVTVSS,high polyreactivity
5,QVQLVESGGGLVQAGGSLRLSCAASGSLSSRNAMGAYRQAPGKERELVAAITRGSSTNYADSVKGRFTISRDNAKNTVYLQMNSLKPEDTAVYYCARRYDPVYKGMGYWGQGTQVTVSS,low polyreactivity
6,QVQLVESGGGLVQAGGSLRLSCAASGSMFSVYAMGGYRQAPGKEMELVAAISRSGGSTYYADSVKGRFTISRDTAKNTVYLQMNSLKPEDTAVYYCAARLAGRGSSSSRVVRTGGYWGQGTQVTVSS,high polyreactivity
7,QVQLVESGGGLVQAGGSLRLSCAASGSNFAVYAMGWYRQAPGKERELVAAISFSGGSTYYADSVKGRFTISRDNAKNTVYLQMNSLKPEDTAVYYCAADPWWTRTDLDYWGQGTQVTVSS,low polyreactivity
8,QVQLVESGGGLVQAGGSLRLSCAASGSNFAYYTMGWYRPAPGKERELVAAITSGGSTYYADSVKGRFTISRDNAKNTVYLQMNSLKPEDTAVYYCATRHSVGRYGMDSWGQGTQVTVSS,high polyreactivity
9,QVQLVESGGGLVQAGGSLRLSCAASGSNFDDNAMGWYRQAPGKERELVAAITRSGGSTYYADSVKGRFTISRDNAKNTVYLQMISLKPEDTAVYYCAAAAYHSYGPGKRFYYWGQGSQVTVSS,high polyreactivity
10,QVQLVESGGGLVQAGGSLRLSCAASGSNFDTYAMGWYIPAPGKERELVAVLTWSGGGTYYSDSVKGRFTISRDNANNTVYLQMTSVKPEVTAVYYCNAADFGWDYASYYWGQGTQLTVSS,low polyreactivity
11,QVQLVESGGGLVQAGGSLRLSCAASGSNFETYVMGWYRQAPGKERELFAAINSGGSTNYADSVKGRFTISRDNAKNTVYLQMNSLKPEETAVYYCNADWFTPAQPWYRYFIRYDYWGQGSQVTVSS,low polyreactivity
12,QVQLVESGGGLVQAGGSLRLSCAASGSNFFYNVMGWYRQAPGKERELVAAITRSGGRTYYADSVKGRFTISRDNAKNTVYLQMNSLKPEDTAVYYCAAALGGKFDYWGQGTQVTVSS,high polyreactivity
13,QVQLVESGGGLVQAGGSLRLSCAASGSNFGPNAMGWYRQAPGKERELVAVISFRGGNTYYADSVKGRFTISRDNAKNTVYLQMNSLKPEDTAVYYCAARGYRYGYGYWGQGTQVTVSS,high polyreactivity
14,QVQLVESGGGLVQAGGSLRLSCAASGSNFGWYAMGWYRQAPGKERELVAAITFSSVSTYYADSEKGRFTISRDNAKNTVYLQMNSLKPEDTAVYYCAAVVYYTFDYWGLGTQVTVSS,low polyreactivity
15,QVQLVESGGGLVQAGGSLRLSCAASGSNFLCYTMGWYRQAPGKERELVAAISRTGGSTYYADSVKGRFTISRDNAKNTVYLQRNSLKPEDTAVYYCAASLYSITRARYDYWGQGTQVTVSS,high polyreactivity
16,QVQLVESGGGLVQAGGSLRLSCAASGSNFLYYAIGWYRQAPGKERELVDGIRRGGRTNYADSVKGRFTISRDNAKNTVYLQMNSLKPEDTAVYYCAKGGYWGQGTQVTVSS,high polyreactivity
17,QVQLVESGGGLVQAGGSLRLSCAASGSNFNYYTMGWYRQAPGKERELVAAISYRGGRTYYADSVKGRFTISRDTSKNTVYLQMNSLKPEDTAVYYCNAVTRIYEVDYWGQGTQVTVSS,high polyreactivity
18,QVQLVESGGGLVQAGGSLRLSCAASGSNFQFNAMGWYRQAPGKEREFVAAITSSAGRTYYADSVKGRFTISRDNAKNTVYLQMNSLKPEDSAVYYCGDTFYRRYVDLGYWGQGTQVTVSS,high polyreactivity
19,QVQLVESGGGLVQAGGSLRLSCAASGSNFRSNAMGWYRQAPGKERELVAAISRRGGSTYYADSVKGRFRISRDIAKNTVYLQMNSLKPEDTAVYYCAAPTIVSGHDSWGQGTQVTVSS,high polyreactivity
20,QVQLVESGGGLVQAGGSLRLSCAASGSNFRSYAMGWYIQAPGKERELVAAITWGGNTYYADSVKGRFTISRDNAKNTVYLQMNSLKPEDTAVYYCAAKSYYTRRSKYDYWGQGTQVTVSS,high polyreactivity
21,QVQLVESGGGLVQAGGSLRLSCAASGSNFRVYAMGWDRQAPGKERELVAAISSSGGITYYADSVKGRFTISRDNAKNTVYLQMNSLKPEDTAVYYCAKGTVIHVLYDYWGQGTQVTVSS,low polyreactivity
